From patent publication US20250084172A1 (23ANDME, published 2025)

B3: human ULBP6 displayed on M13 phage (ULBP6-HA-pIII) (other)
chain: RRDDPHSLCYDITVIPKFRPGPRWCAVQGQVDEKTFLHYDCGNKTVTPVSPLGKKLNVTMAWKAQNPVLREVVDILTEQLLDIQLENYTPKEPLTLQARMSCEQKAEGHSSGSWQFSIDGQTFLLFDSEKRMWTTVHPGARKMKEKWENDKDVAMSFHYISMGDCIGWLEDFLMGMDSTLEPSAGAPLAMSSGYPYDVPDYA
notes: also called ULBP6 phage; not shown: M13 minor coat protein pIII

What was measured:
[1] = biological target: T1, cynomolgus soluble ULBP2/6 (cULBP2/6) (cynomolgus, UniProt Q5VY80 28-217 (human entry), limits assumed); experiment: SPR (BIACORE 8K, 37 C); antibody captured on Protein A, soluble ULBP injected;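 note: ligand injected as threefold dilution series in HBS-P (highest 10 or 50 nM), reference-cell and buffer-subtracted sensorgrams fitted with a 1:1 Langmuir model for on and off rates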
T1 construct: also called cyno ULBP6; Cyno-cULBP2/6
T1 chain: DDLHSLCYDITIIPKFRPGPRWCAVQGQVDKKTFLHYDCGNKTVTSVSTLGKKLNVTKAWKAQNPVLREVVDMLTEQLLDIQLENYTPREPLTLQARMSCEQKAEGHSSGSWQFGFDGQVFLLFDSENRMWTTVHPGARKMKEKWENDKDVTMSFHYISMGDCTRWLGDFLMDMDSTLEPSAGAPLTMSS

[2] = biological target: T2, cynomolgus soluble ULBP5 (cULBP5) (cynomolgus); experiment: as above
T2 construct: also called Cyno-cULBP5
T2 chain: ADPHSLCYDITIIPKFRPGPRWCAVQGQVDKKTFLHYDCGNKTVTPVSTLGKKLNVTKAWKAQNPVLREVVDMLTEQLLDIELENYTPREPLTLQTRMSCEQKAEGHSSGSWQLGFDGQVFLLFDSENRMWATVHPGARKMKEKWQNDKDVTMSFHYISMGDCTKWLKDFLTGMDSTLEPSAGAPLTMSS

[3] = biological target: T3, human soluble ULBP2 (hULBP2) (human, UniProt Q9BZM5 26-216); experiment: as above
T3 construct: also called sULBP2
T3 sequence: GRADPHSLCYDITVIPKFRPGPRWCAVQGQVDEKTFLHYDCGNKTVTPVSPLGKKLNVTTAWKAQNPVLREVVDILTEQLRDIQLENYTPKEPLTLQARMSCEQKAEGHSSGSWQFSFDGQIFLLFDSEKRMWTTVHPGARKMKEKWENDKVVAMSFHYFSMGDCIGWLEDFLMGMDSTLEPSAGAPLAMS

[4] = biological target: T4, human soluble ULBP6 haplotype 02 (hULBP6_02) (human, UniProt Q5VY80 26-218); experiment: as above
T4 construct: also called sULBP6_02
T4 chain: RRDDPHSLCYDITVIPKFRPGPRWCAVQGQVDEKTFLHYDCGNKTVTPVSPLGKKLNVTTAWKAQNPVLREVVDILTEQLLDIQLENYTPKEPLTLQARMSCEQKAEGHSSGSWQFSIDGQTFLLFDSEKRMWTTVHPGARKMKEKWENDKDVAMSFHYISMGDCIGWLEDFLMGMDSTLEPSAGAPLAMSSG

[5] = biological target: T5, human soluble ULBP6 haplotype 01 (hULBP6_01) (human, UniProt Q5VY80 27-218, limits assumed); experiment: as above
T5 construct: also called sULBP6_01
T5 chain: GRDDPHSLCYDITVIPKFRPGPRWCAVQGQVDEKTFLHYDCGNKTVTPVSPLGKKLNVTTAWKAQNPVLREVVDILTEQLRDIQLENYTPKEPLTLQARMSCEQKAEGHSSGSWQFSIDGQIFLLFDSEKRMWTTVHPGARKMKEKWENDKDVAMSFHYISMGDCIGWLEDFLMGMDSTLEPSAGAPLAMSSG

[6] = biological target: T4, human soluble ULBP6 haplotype 02 …; experiment: cell-based or functional assay
[7] = biological target: T6, cell surface ULBP6_01 on COV644 cells (human, UniProt Q5VY80 27-218); experiment: flow cytometry on COV644 cells, anti-hFc-APC detection, average of 2 replicates
T6 construct: whole, on cells; also called cell surface ULBP6 (COV644)
T6 chain: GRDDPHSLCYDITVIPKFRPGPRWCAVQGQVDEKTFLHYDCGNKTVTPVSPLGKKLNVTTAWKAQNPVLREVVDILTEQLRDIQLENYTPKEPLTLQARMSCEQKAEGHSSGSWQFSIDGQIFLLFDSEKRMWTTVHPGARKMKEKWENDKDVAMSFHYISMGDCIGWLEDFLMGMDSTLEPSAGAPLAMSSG

[8] = biological target: T7, cell surface ULBP6_02 on PANC02.13 cells (human, UniProt Q5VY80 26-218); experiment: flow cytometry on PANC02.13 cells, anti-hFc-APC detection, average of 2 replicates
T7 construct: whole, on cells; also called cell surface ULBP6 (PANC02.13)
T7 chain: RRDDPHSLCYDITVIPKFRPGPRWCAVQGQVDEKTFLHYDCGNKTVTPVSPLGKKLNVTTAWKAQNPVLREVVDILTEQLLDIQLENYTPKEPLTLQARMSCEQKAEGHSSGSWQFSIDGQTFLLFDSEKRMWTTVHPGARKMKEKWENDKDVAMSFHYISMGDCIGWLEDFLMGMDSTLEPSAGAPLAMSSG

[9] = biological target: T4, human soluble ULBP6 haplotype 02 …; experiment: cell-based or functional assay
[10] = biological target: B3; experiment: phage ELISA: plate coated with the antibody, ULBP6 phage titrated in 3-fold steps from 1.0 O.D./mL, HRP anti-M13 detection, O.D. 450
[11] = biological target: T6, cell surface ULBP6_01 on COV644 cells; experiment: flow cytometry; blocking of hNKG2D-mFc binding to COV644 cells, average of 2 replicates
[12] = biological target: T4, human soluble ULBP6 haplotype 02 …; experiment: Biacore binding to ULBP6_02 (SPR)
[13] = biological target: hNKG2D-Fc (human NKG2D 78-216 with C-terminal long huFc-Flag tag) (human); experiment: phage ELISA: plate coated with the ULBP6 receptor NKG2D (PUR4928, construct not stated), phage titrated in 3-fold steps from 1.0 O.D./mL, HRP anti-M13 detection, O.D. 450
Sequence of hNKG2D-Fc (human NKG2D 78-216 with C-terminal long huFc-Flag tag) (human) (chain, as listed by the source limits assumed): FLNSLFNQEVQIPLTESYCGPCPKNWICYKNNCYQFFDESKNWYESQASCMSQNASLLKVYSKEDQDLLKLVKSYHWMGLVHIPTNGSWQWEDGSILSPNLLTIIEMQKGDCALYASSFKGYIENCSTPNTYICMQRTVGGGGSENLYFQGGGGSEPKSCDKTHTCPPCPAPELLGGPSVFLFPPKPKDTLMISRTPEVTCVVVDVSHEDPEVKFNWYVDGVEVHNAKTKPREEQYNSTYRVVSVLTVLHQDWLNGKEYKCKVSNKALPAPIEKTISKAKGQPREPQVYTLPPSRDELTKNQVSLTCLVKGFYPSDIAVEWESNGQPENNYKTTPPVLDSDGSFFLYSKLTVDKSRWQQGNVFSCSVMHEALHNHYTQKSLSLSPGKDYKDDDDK

anti-HA antibody = experiment: phage ELISA: plate coated with anti-HA antibody, phage titrated in 3-fold steps from 1.0 O.D./mL, HRP anti-M13 detection, O.D. 450

B1: humanized 7B3 (h7B3), Fc version not stated (antibody, V domains shown)
VH: EVQLVESGGGLVQPGGSLRLSCAASGFTFSTYGFHWVRQAPGKGLEWVAYISSNSGTIDYADTVKGRFTISRDNAKNSLYLQMNSLRAEDTAVYYCARQGYGFDNWGQGTTVTVSS
VL: DIQLTQSPSSLSASVGDRVTITCSASSRVSYMNWYQQKPGKSPKIWVYGISNLASGVPSRFSGSGSGTDFTFTISSLQPEDIATYYCQQRSSHPLTFGGGTKVEIK
notes: Recombinant humanized antibody, hIgG1 backbone with kappa light chain; also called hu7B3; PUR3922
Kd [1]: 0.377 nM
koff [1]: 0.000542 s⁻¹
kon [1]: 1.44e+06 M⁻¹ s⁻¹
Kd [2]: 6.13 nM
koff [2]: 0.0034 s⁻¹
kon [2]: 554000 M⁻¹ s⁻¹
Kd [3]: 0.673 nM
koff [3]: 0.000507 s⁻¹
kon [3]: 753000 M⁻¹ s⁻¹
Kd [4]: 0.255 nM
koff [4]: 0.000379 s⁻¹
kon [4]: 1.48e+06 M⁻¹ s⁻¹
Kd [5]: 0.263 nM
koff [5]: 0.000382 s⁻¹
kon [5]: 1.45e+06 M⁻¹ s⁻¹
EC50 (read off the curve); IFNg secretion of primed PBMCs on plate-bound MICA with 50 nM sULBP6_02 [6]: ~1 nM
EC50 [7]: 1.93 nM
EC50 [8]: 1.97 nM
EC50 (read off the curve); NKG2D MFI on primed PBMCs with 50 nM sULBP6_02 [9]: ~20 nM
EC50 (read off the curve) [10]: ~0.006 O.D. (phage)
IC50 [11]: 0.17 nM

B2: humanized 8E8 (h8E8), Fc version not stated (antibody, V domains shown)
VH: QVQLVQSGAEVKKPGSSVKVSCKASGYTFTTYGITWVRQAPGQGLEWIGEIYPGTATSYSNERFKGRATLTADRSTSTAYMELSSLRSEDTAVYFCARRGTYGTYEWYFDVWGRGTLVTVSS
VL: DIQMTQSPSSLSASVGDRVTITCRASENIYSHLAWYQQKPGKSPKLLVYAATNLADGVPSRFSGSGSGTDYTLTISSLQPEDFATYYCQHFWGTPWTFGGGTKVEIK
notes: also called hu8E8; PUR3924
Kd [12]: 1.56 nM
IC50 (read off the curve); fall of NKG2D MFI on primed PBMCs with 50 nM sULBP6_02 [9]: ~3 nM

B3
EC50 (read off the curve) [13]: ~0.01 O.D. (phage)
EC50 (read off the curve) (anti-HA antibody): ~0.01 O.D. (phage)
